From FireProtDB

Settings: Escherichia coli (strain K12), Thermal, CD, whole UniProt chain shown; for unfolding free energy: reversible: yes
[1] = pH 0.53, glycine-HCl 10 mM, reversible: yes (95%)
[2] = pH 0.83, glycine-HCl 10 mM, reversible: yes (96%)
[3] = pH 1.02, glycine-HCl 10 mM, reversible: yes (98%)
[4] = pH 1.07, glycine-HCl 10 mM, reversible: yes (88%)
[5] = pH 1.08, glycine-HCl 10 mM, reversible: yes (102%)
[6] = pH 1.14, glycine-HCl 10 mM, reversible: yes (101%)
[7] = pH 1.24, glycine-HCl 10 mM, reversible: yes (103%)
[8] = pH 1.28, glycine-HCl 10 mM, reversible: yes (100%)
[9] = pH 1.3, glycine-HCl 10 mM, reversible: yes (101%)
[10] = pH 1.31, glycine-HCl 10 mM, reversible: yes (94%)
[11] = pH 1.4, glycine-HCl 10 mM, reversible: yes (91%)
[12] = pH 1.41, glycine-HCl 10 mM, reversible: yes (98%)
[13] = pH 1.45, glycine-HCl 10 mM, reversible: yes (101%)
[14] = pH 1.52, glycine-HCl 10 mM, reversible: yes (107%)
[15] = pH 1.55, glycine-HCl 10 mM, reversible: yes (93%)
[16] = pH 1.55, glycine-HCl 10 mM, reversible: yes (104%)
[17] = pH 1.62, glycine-HCl 10 mM, reversible: yes (100%)
[18] = pH 1.63, glycine-HCl 10 mM, reversible: yes (108%)
[19] = pH 1.67, glycine-HCl 10 mM, reversible: yes (108%)
[20] = pH 1.71, glycine-HCl 10 mM, reversible: yes (98%)
[21] = pH 1.75, glycine-HCl 10 mM, reversible: yes (90%)
[22] = pH 1.76, glycine-HCl 10 mM, reversible: yes (101%)
[23] = pH 1.79, glycine-HCl 10 mM, reversible: yes (104%)
[24] = pH 1.84, glycine-HCl 10 mM, reversible: yes (110%)
[25] = pH 1.94, glycine-HCl 10 mM, reversible: yes (88%)
[26] = pH 2, glycine-HCl 10 mM, reversible: yes (98%)
[27] = pH 2.03, glycine-HCl 10 mM, reversible: yes (109%)
[28] = pH 2.04, glycine-HCl 10 mM, reversible: yes (95%)
[29] = pH 2.15, glycine-HCl 10 mM, reversible: yes (92%)
[30] = pH 2.18, glycine-HCl 10 mM, reversible: yes (90%)
[31] = pH 2.22, glycine-HCl 10 mM, reversible: yes (95%)
[32] = pH 2.39, glycine-HCl 10 mM, reversible: yes (95%)
[33] = pH 2.45, glycine-HCl 10 mM, reversible: yes (96%)
[34] = pH 2.53, glycine-HCl 10 mM, reversible: yes (92%)
[35] = pH 2.65, glycine-HCl 10 mM, reversible: yes (91%)
[36] = pH 2.79, glycine-HCl 10 mM, reversible: yes (92%)
[37] = pH 2.86, glycine-HCl 10 mM, reversible: yes (97%)
[38] = pH 2.95, glycine-HCl 10 mM, reversible: yes (92%)
[39] = pH 3.06, glycine-HCl 10 mM, reversible: yes (90%)
[40] = pH 3.1, glycine-HCl 10 mM, reversible: yes (85%)
[41] = pH 3.11, glycine-HCl 10 mM, reversible: yes (91%)
[42] = pH 3.18, glycine-HCl 10 mM, reversible: yes (93%)
[43] = pH 3.25, glycine-HCl 10 mM, reversible: yes (94%)
[44] = pH 3.26, glycine-HCl 10 mM, reversible: yes (95%)
[45] = pH 3.34, glycine-HCl 10 mM, reversible: yes (94%)
[46] = pH 3.38, glycine-HCl 10 mM, reversible: yes (96%)
[47] = pH 3.64, glycine-HCl 10 mM, reversible: yes (93%)
[48] = pH 3.98, glycine-HCl 10 mM, reversible: yes (93%)
[49] = pH 4, glycine-HCl 10 mM, reversible: yes (94%)

B1: Ribonuclease HI wild type, P0A7Y4 (protein)
chain: MLKQVEIFTDGSCLGNPGPGGYGAILRYRGREKTFSAGYTRTTNNRMELMAAIVALEALKEHCEVILSTDSQYVRQGITQWIHNWKKRGWKTADKKPVKNVDLWQRLDAALGQHQIKWEWVKGHAGHPENERCDELARAAAMNPTLEDTGYQVEV
- Tm [1]: 23.6 °C
- unfolding enthalpy (van 't Hoff) [1]: 41.2 kcal/mol
- Tm [2]: 23.9 °C
- unfolding enthalpy (van 't Hoff) [2]: 37.3 kcal/mol
- Tm [3]: 20.4 °C
- unfolding enthalpy (van 't Hoff) [3]: 34.7 kcal/mol
- Tm [4]: 24.9 °C
- unfolding enthalpy (van 't Hoff) [4]: 35.3 kcal/mol
- Tm [5]: 22.3 °C
- unfolding enthalpy (van 't Hoff) [5]: 49.6 kcal/mol
- Tm [6]: 21.5 °C
- unfolding enthalpy (van 't Hoff) [6]: 51.5 kcal/mol
- Tm [7]: 21.5 °C
- unfolding enthalpy (van 't Hoff) [7]: 48.7 kcal/mol
- Tm [8]: 23 °C
- unfolding enthalpy (van 't Hoff) [8]: 52.7 kcal/mol
- Tm [9]: 21.2 °C
- unfolding enthalpy (van 't Hoff) [9]: 56.9 kcal/mol
- Tm [10]: 20.9 °C
- unfolding enthalpy (van 't Hoff) [10]: 45.5 kcal/mol
- Tm [11]: 20.3 °C
- unfolding enthalpy (van 't Hoff) [11]: 52.9 kcal/mol
- Tm [12]: 21 °C
- unfolding enthalpy (van 't Hoff) [12]: 46.1 kcal/mol
- Tm [13]: 21.8 °C
- unfolding enthalpy (van 't Hoff) [13]: 52 kcal/mol
- Tm [14]: 21.5 °C
- unfolding enthalpy (van 't Hoff) [14]: 55.3 kcal/mol
- Tm [15]: 21.7 °C
- unfolding enthalpy (van 't Hoff) [15]: 53.4 kcal/mol
- Tm [16]: 20.8 °C
- unfolding enthalpy (van 't Hoff) [16]: 54.4 kcal/mol
- Tm [17]: 20.6 °C
- unfolding enthalpy (van 't Hoff) [17]: 56.4 kcal/mol
- Tm [18]: 21.9 °C
- unfolding enthalpy (van 't Hoff) [18]: 55.7 kcal/mol
- Tm [19]: 23.6 °C
- unfolding enthalpy (van 't Hoff) [19]: 70.6 kcal/mol
- Tm [20]: 21.1 °C
- unfolding enthalpy (van 't Hoff) [20]: 58.3 kcal/mol
- Tm [21]: 21.7 °C
- unfolding enthalpy (van 't Hoff) [21]: 72.5 kcal/mol
- Tm [22]: 25.2 °C
- unfolding enthalpy (van 't Hoff) [22]: 78.5 kcal/mol
- Tm [23]: 23.9 °C
- unfolding enthalpy (van 't Hoff) [23]: 60.7 kcal/mol
- Tm [24]: 23.9 °C
- unfolding enthalpy (van 't Hoff) [24]: 64.8 kcal/mol
- Tm [25]: 24.8 °C
- unfolding enthalpy (van 't Hoff) [25]: 74.6 kcal/mol
- unfolding free energy (pH 2, 10 °C, glycine-HCl 10 mM): 2 kcal/mol
- Tm [26]: 26.5 °C
- unfolding enthalpy (van 't Hoff) [26]: 61.3 kcal/mol
- Tm [27]: 28.7 °C
- unfolding enthalpy (van 't Hoff) [27]: 67.9 kcal/mol
- Tm [28]: 28.5 °C
- unfolding enthalpy (van 't Hoff) [28]: 70.6 kcal/mol
- Tm [29]: 29.9 °C
- unfolding enthalpy (van 't Hoff) [29]: 67.1 kcal/mol
- Tm [30]: 32.5 °C
- unfolding enthalpy (van 't Hoff) [30]: 63.5 kcal/mol
- Tm [31]: 33 °C
- unfolding enthalpy (van 't Hoff) [31]: 65.8 kcal/mol
- Tm [32]: 35.5 °C
- unfolding enthalpy (van 't Hoff) [32]: 66.7 kcal/mol
- Tm [33]: 35.4 °C
- unfolding enthalpy (van 't Hoff) [33]: 71.8 kcal/mol
- Tm [34]: 39.8 °C
- unfolding enthalpy (van 't Hoff) [34]: 76 kcal/mol
- Tm [35]: 42.3 °C
- unfolding enthalpy (van 't Hoff) [35]: 81.3 kcal/mol
- Tm [36]: 46.1 °C
- unfolding enthalpy (van 't Hoff) [36]: 89 kcal/mol
- Tm [37]: 46.4 °C
- unfolding enthalpy (van 't Hoff) [37]: 80.5 kcal/mol
- Tm [38]: 50.1 °C
- unfolding enthalpy (van 't Hoff) [38]: 91.6 kcal/mol
- unfolding free energy (pH 3, 10 °C, glycine-HCl 10 mM): 8.14 kcal/mol
- unfolding free energy (pH 3, 25 °C, glycine-HCl 10 mM): 6.08 kcal/mol
- Tm [39]: 50.7 °C
- unfolding enthalpy (van 't Hoff) [39]: 102 kcal/mol
- Tm [40]: 53.9 °C
- unfolding enthalpy (van 't Hoff) [40]: 106 kcal/mol
- Tm [41]: 52.2 °C
- unfolding enthalpy (van 't Hoff) [41]: 101 kcal/mol
- Tm [42]: 54 °C
- unfolding enthalpy (van 't Hoff) [42]: 102 kcal/mol
- Tm [43]: 55.1 °C
- unfolding enthalpy (van 't Hoff) [43]: 109 kcal/mol
- Tm [44]: 58.9 °C
- unfolding enthalpy (van 't Hoff) [44]: 96.6 kcal/mol
- Tm [45]: 57.6 °C
- unfolding enthalpy (van 't Hoff) [45]: 100 kcal/mol
- Tm [46]: 57.4 °C
- unfolding enthalpy (van 't Hoff) [46]: 101 kcal/mol
- Tm [47]: 62.1 °C
- unfolding enthalpy (van 't Hoff) [47]: 106 kcal/mol
- Tm [48]: 66 °C
- unfolding enthalpy (van 't Hoff) [48]: 125 kcal/mol
- unfolding free energy (pH 4, 10 °C, glycine/HCl 10 mM): 12 kcal/mol
- unfolding free energy (pH 4, 25 °C, glycine-HCl 10 mM): 10 kcal/mol
- Tm [49]: 66.6 °C
- unfolding enthalpy (van 't Hoff) [49]: 112 kcal/mol
